# B1: DNA endonuclease SAE2 (Saccharomyces cerevisiae), P46946 (parent)
# chain: MVTGEENVYLKSSLSILKELSLDELLNVQYDVTTLIAKRVQALQNRNKCVLEEPNSKLAEILCHEKNAPQQSSQTSAGPGEQDSEDFILTQFDEDIKKESAEVHYRNENKHTVQLPLVTMPPNRHKRKISEFSSPLNGLNNLSDLEDCSDTVIHEKDNDKENKTRKLLGIELENPESTSPNLYKNVKDNFLFDFNTNPLTKRAWILEDFRPNEDIAPVKRGRRKLERFYAQVGKPEDSKHRSLSVVIESQNSDYEFAFDNLRNRSKSPPGFGRLDFPSTQEGNEDKKKSQEIIRRKTKYRFLMASNNKIPPYEREYVFKREQLNQIVDDGCFFWSDKLLQIYARC
# partner: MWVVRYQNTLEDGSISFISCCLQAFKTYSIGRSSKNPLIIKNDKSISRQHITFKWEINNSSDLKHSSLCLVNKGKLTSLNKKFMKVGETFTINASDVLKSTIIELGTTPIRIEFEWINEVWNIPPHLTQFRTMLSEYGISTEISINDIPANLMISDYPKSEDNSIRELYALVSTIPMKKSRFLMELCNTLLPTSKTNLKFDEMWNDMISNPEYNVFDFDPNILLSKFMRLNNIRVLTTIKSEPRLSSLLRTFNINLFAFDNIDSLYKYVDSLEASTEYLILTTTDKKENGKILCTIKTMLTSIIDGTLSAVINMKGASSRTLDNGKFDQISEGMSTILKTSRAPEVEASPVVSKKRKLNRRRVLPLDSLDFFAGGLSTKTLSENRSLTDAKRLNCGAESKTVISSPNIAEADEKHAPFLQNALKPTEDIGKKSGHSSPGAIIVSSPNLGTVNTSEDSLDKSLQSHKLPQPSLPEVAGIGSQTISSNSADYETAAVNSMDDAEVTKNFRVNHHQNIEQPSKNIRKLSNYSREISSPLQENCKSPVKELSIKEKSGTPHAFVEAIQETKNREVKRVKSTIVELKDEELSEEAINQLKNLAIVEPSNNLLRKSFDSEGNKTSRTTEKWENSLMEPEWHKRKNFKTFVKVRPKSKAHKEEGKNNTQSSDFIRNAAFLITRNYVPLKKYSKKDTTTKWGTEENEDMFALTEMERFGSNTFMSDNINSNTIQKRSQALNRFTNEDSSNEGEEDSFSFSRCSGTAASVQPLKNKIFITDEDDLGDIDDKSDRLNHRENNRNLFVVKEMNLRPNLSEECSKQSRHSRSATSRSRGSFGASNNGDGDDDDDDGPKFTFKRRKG
# Variants of: B1
# Conditions: with xrs2_yeast XRS2, P33301
row,effect of a mutation on the interaction,Variant
1,decreasing interaction strength,MVTGEENVYLKSSLSILKELSLDELLNVQYDVTTLIAKRVQALQNRNKCVLEEPNSKLAEILCHEKNAPQQSSQTSAGPGEQDSEDFILTQFDEDIKKESAEVHYRNENKHTVQLPLVTMPPNRHKRKISEFSSPLNGLNNLSDLEDCSDTVIHEKDNDKENKTRKLLGIELENPESTSPNLYKNVKDNFLFDFNTNPLTKRAWILEDFRPNEDIAPVKRGRRKLERFYAQVGKPEDSKHRSLSVVIESQNSDYEFAFDNLRNRSKSPPDFGRLDFPSTQEGNEDKKKSQEIIRRKTKYRFLMASNNKIPPYEREYVFKREQLNQIVDDGCFFWSDKLLQIYARC [G270D]
2,disrupting interaction strength,MVTGEENVYLKSSLSILKELSLDELLNVQYDVTTLIAKRVQALQNRNKCVLEEPNSKLAEILCHEKNAPQQSSQTSAGPGEQDSEDFILTQFDEDIKKESAEVHYRNENKHTVQLPLVTMPPNRHKRKISEFSSPLNGLNNLSDLEDCSDTVIHEKDNDKENKTRKLLGIELENPESTSPNLYKNVKDNFLFDFNTNPLTKRAWILEDFRPNEDIAPVKRGRRKLERFYAQVGKPEDSKHRSLSVVIESQNSDYEFAFDNLRNRSKAAPGFGRLDFPSTQEGNEDKKKSQEIIRRKTKYRFLMASNNKIPPYEREYVFKREQLNQIVDDGCFFWSDKLLQIYARC [S267A;P268A]
3,decreasing interaction strength,MVTGEENVYLKSSLSILKELSLDELLNVQYDVTTLIAKRVQALQNRNKCVLEEPNSKLAEILCHEKNAPQQSSQTSAGPGEQDSEDFILTQFDEDIKKESAEVHYRNENKHTVQLPLVTMPPNRHKRKISEFSSPLNGLNNLSDLEDCSDTVIHEKDNDKENKTRKLLGIELENPESTSPNLYKNVKDNFLFDFNTNPLTKRAWILEDFRPNEDIAPVKRGRRKLERFYAQVGKPEDSKHRSLSVVIESQNSDYEFAFDNLRNRSKSPPGFGRLDFAAAQEGNEDKKKSQEIIRRKTKYRFLMASNNKIPPYEREYVFKREQLNQIVDDGCFFWSDKLLQIYARC [P277A;S278A;T279A]

# Source: IntAct's records for PubMed 25231868
